No end group written: not given here.
What was measured:
[1] = target: soluble human insulin receptor-immunoglobulin heavy chain chimera (human) (UniProt P06213); assay: phage ELISA ratios compared
[2] = target: soluble human insulin receptor-immunoglobulin heavy chain chimera (human) (UniProt P06213); assay: phage ELISA over milk background
[3] = target: insulin receptor prepared according to Bass et al., 1996 (soluble IR) (human) (UniProt P06213); assay: phage ELISA; A405 on IR / A405 on non-fat milk
soluble IGF-1R [4] = target: soluble IGF-1R (UniProt P08069); assay: phage ELISA; A405 on IGF-1R / A405 on non-fat milk
soluble IGF-1R [5] = target: soluble IGF-1R (UniProt P08069); assay: phage ELISA; IGF-1R ratio over background divided by IR ratio
[6] = target: insulin receptor prepared according to Bass et al., 1996 (soluble IR) (human) (UniProt P06213); assay: phage ELISA; IR ratio over background divided by IGF-1R ratio
[7] = target: soluble human insulin receptor-immunoglobulin heavy chain chimera (human), P06213; assay: ratio of IC50 on rhIGF-1R (TR-FRET vs b-20E2) to IC50 on sIR-Fc (FP vs FITC-RP9); details: remark: other sources report otherwise

| IR/IGF-1R ratio comparison [1] | ratio over background [2] | ratio over background (fold over background) [3] | ratio over background (fold over background) (soluble IGF-1R [4]) | IGF-1R/IR ratio comparison (soluble IGF-1R [5]) | IR/IGF-1R ratio comparison [6] | Binding Ratio IGF-1R/IR [7] | Binder |
| --- | --- | --- | --- | --- | --- | --- | --- |
| 0.3 | 1.9 | – | – | – | – | – | RGAVAGFHDQFYDWFDRQVSRVHKFG [H2CA-4-H9-IGFR] |
| – | – | 1 | 2.9 | 2.9 | 0.3 | – | DYKDRCGDEEGWQENRRDDPFYHKLSELFGGCAAAGAP (peptide, not shown: large carriers) [B6Hα-3-E5-IR] |
| 0.1 | 1.7 | – | – | – | – | – | RCEEKQAEVGPSSDPFYHKMSELLGCR [B6Hα-3-E9-IR] |
| 0.1 | 1.6 | – | – | – | – | – | LQPCSGFYECIERLIGVKLSG [20E2Bβ-4-G7-IR] |
| – | – | 1.3 | 2.4 | 1.8 | 0.5 | – | DYKDCSMAAVAEAGDDDDPFYHKLSELCQGSAAAGAP (peptide, not shown: large carriers) [B6Hα-3-F1-IR] |
| – | – | 0.3 | 4.6 | 13.1 | 0.1 | – | DYKDLSCLAYSRHGIWRPSTDLGLGRSVGEGSVSTRWRGYDWFEAAAGAP (peptide, not shown: large carriers) [40F-4-D1-IGFR] |
| – | – | 1.3 | 3.3 | 2.6 | 0.4 | – | DYKDMNVFVSFYDAIDQLVCQRIGCAAAGAP (peptide, not shown: large carriers) [20E2A-4-G11-IGFR] |
| 0.1 | 1.8 | – | – | – | – | – | YRGMLVLGRSSDGAGKVAFERPARIGQTVFAVNFYDWFV [A6L-0-E6-IR] |
| – | – | 0.2 | 3 | – | – | – | DYKDGLDHSDAVGVHLGFAWPAQARGRWEAGGLEDTWAGYDWLAAAGAP (peptide, not shown: large carriers) [40F-4-B1-IGFR] |
| 0.1 | 1.9 | – | – | – | – | – | QPDHSYFYSLLQELVGSEERL [20E2B-4-F9-IGFR] |

Second part, the binder before the results:

| Binder | IR/IGF-1R ratio comparison [1] | ratio over background [2] | ratio over background (fold over background) [3] | ratio over background (fold over background) (soluble IGF-1R [4]) | IGF-1R/IR ratio comparison (soluble IGF-1R [5]) | IR/IGF-1R ratio comparison [6] | Binding Ratio IGF-1R/IR [7] |
| --- | --- | --- | --- | --- | --- | --- | --- |
| DYKDVDTPAQVGWNRLWSVGPGEHWYTDDPFYHXLSELLRESGAAAAGAP (peptide, not shown: large carriers, not fully specified; X: residue not identified in the source) [B6L-3-G6-IR] | – | – | 1.8 | 2.5 | 1.4 | – | – |
| DYKDGCITAENGAGDPFYHKLSELGGCSAAAGAP (peptide, not shown: large carriers) [B6Hα-1-B3-IR] | – | – | 1.1 | 3.2 | 2.9 | 0.3 | – |
| DYKDCGAKMTGTPNDPFYHKLSELLQRGAAAGAP (peptide, not shown: large carriers) [B6Hα-3-E6-IR] | – | – | 1.2 | 2.3 | 1.9 | 0.5 | – |
| GGTKAVAKVGTRDDPFYHKLSELLQGS [B6Hα-4-G8-IR] | 0.3 | 1.7 | – | – | – | – | – |
| DYKDSRVAATKEKRPSDDPFYHKLSELLQGSAAAGAP (peptide, not shown: large carriers) [B6Hα-3-F7-IR] | – | – | 1 | 3.1 | 3.1 | 0.3 | – |
| CWARPCGDAANFYDWFVQQAS [C1 (D112)] | – | – | – | – | – | – | 0.19 |
| RGMKEEVLVGGSTDPFYHKLSELLQGS [B6Hα-3-F11-IR] | 0.1 | 1.6 | – | – | – | – | – |
| YRGMLVLGRISGGAGKAASERPARIGQKVSAVNFYDWFV [A6L-0-H3-IR] | 0.1 | 2 | – | – | – | – | – |
| SSYGCDGFYLMLFSLGLVASQELEC [20C-3-A1-IGFR] | 0.1 | 1.5 | – | – | – | – | – |
| LRIANLFYQRLWDLAFGGGG [20E2B-3-E8-IGFR] | 0.1 | 1.5 | – | – | – | – | – |
| DYKDSSETAKMVTGTRDDPFYHKLSELVQGSAAAGAP (peptide, not shown: large carriers) [B6Hα-2-D8-IR] | – | – | 1 | 3 | – | – | – |
| QPAPDGFYSALMKLIGRGGVS [20E2B-3-C8-IGFR] | 0.1 | 1.8 | – | – | – | – | – |
| DYKDAGSVTSFYDAMEQLVATGTSAAAAGAP (peptide, not shown: large carriers) [20E2A-3-A4-IGFR] | – | – | 1.8 | 2.5 | 1.4 | – | – |
| MMVVDGFYDALHQLVVAQSLG [20E2A-3-D10-IGFR] | 0.3 | 1.8 | – | – | – | – | – |
| DYKDGHYFGSFYDAIDQLVAGMLPGAAAGAP (peptide, not shown: large carriers) [20E2A-3-A3-IGFR] | – | – | 1.5 | 3 | – | – | – |
| DYKDQSGSGDFYDWLSRLIRGNGDGAAAGAP (peptide, not shown: large carriers) [20E2Bβ-3-C7-IR] | – | – | 1.5 | 3.1 | 2 | 0.5 | – |
| GGTEVDFYRALERLVRGQLGL [20E2B-3-D8-IGFR] | 0.1 | 1.6 | – | – | – | – | – |
| DYKDAGTPAQVGXNRLWSVWPGEHWNTVDPFYNKLSELLRESGAAAAGAP (peptide, not shown: large carriers, not fully specified; X: residue not identified in the source) [B6L-4-A7-IR] | – | – | 1.9 | 3.4 | 1.8 | – | – |
| GCVVEWQKWHGASDPFYHKLSELGGCS [B6Hα-3-F10-IR] | 0.2 | 1.9 | – | – | – | – | – |
| DYKDAETSAQVGWQRLWSVWPGDHWSTLDPFYHKLSELLRESGAAAAGAP (peptide, not shown: large carriers) [B6L-3-G5-IR] | – | – | 1.4 | 2 | 1.4 | 0.7 | – |
| IIGGFYSYFNSVLRLGT [NNRPγ-4-A1-IR] | 0.2 | 1.8 | – | – | – | – | – |

Reference: patent US6875741
